Data on one protein can be found in paper PMC4856307, “A Hidden Transhydrogen Activity of a FMN-Bound Diaphorase under Anaerobic Conditions” (PLoS ONE, 2016).

Holding throughout (test): purified protein
Assay type in all cases: biochemical, Geobacillus stearothermophilus

Substrate in series [1]: NC(=O)C1=CN([C@@H]2O[C@H](COP(=O)(O)OP(=O)(O)OC[C@H]3O[C@@H](n4cnc5c(N)ncnc54)[C@H](O)[C@@H]3O)[C@@H](O)[C@H]2O)C=CC1
The following applies: acceptor thio-NAD+; anaerobic (argon); 1x TBS pH 7.4, room temperature; pH 7.4.

Substrate in series [2]: NC(=O)C1=CN([C@@H]2O[C@H](COP(=O)(O)OP(=O)(O)OC[C@H]3O[C@@H](n4cnc5c(N)ncnc54)[C@H](OP(=O)(O)O)[C@@H]3O)[C@@H](O)[C@H]2O)C=CC1
The following applies: acceptor thio-NAD+; anaerobic (argon); 1x TBS pH 7.4, room temperature; pH 7.4.

Substrate in series [3]: NC(=S)c1ccc[n+]([C@@H]2O[C@H](COP(=O)(O)OP(=O)(O)OC[C@H]3O[C@@H](n4cnc5c(N)ncnc54)[C@H](OP(=O)(O)O)[C@@H]3O)[C@@H](O)[C@H]2O)c1
The following applies: hydride donor NAD(P)H; anaerobic (argon).

Substrate in series [4]: NC(=S)c1ccc[n+]([C@@H]2O[C@H](COP(=O)([O-])OP(=O)(O)OC[C@H]3O[C@@H](n4cnc5c(N)ncnc54)[C@H](O)[C@@H]3O)[C@@H](O)[C@H]2O)c1
The following applies: hydride donor NAD(P)H; anaerobic (argon).

For orientation: Km means the concentration of substrate that gives half-maximal velocity. Broadly, the kcat is the number of substrate molecules converted per active site and unit of time at saturation.

B1: FMN-bound diaphorase (FMN-DI, DI, GsDI) (Geobacillus stearothermophilus) (protein)
chain: MTKVLYITAHPHDDTQSYSMAVGKAFIETYKQVHPDHEVIHLDLYKEYIPEIDVDVFSGWGKLRSGKSFEELSDEEKAKVGRMNELCEQFISADKYVFVTPMWNFSFPPVLKAYIDAVAVAGKTFKYTEQGPVGLLTDKKALHIQARGGFYSEGPAAEMEMGHRYLSVIMQFFGVPSFEGLFVEGHAAMPEKAEEIKANAIARAKDLAHTF
notes: full length from 636-bp DNA fragment, E. coli BL21 Star (DE3), plasmid pET20b-Gsdi, Ni-resin purified (C-terminal His tag implied by reverse primer)
In the case of B1, the Km worked out at 24 ± 3 µM in “purified protein [1]”, 699 ± 49 µM in the series “purified protein [2]”, 4.813 mM in the series “purified protein [3]” and 917 µM in the series “purified protein [4]”. Also, the turnover number (kcat) is 1.64 ± 0.05 s⁻¹ in the series “purified protein [1]”, 1.93 ± 0.06 s⁻¹ in “purified protein [2]”, approximately 0.26 s⁻¹ in “purified protein [3]” and approximately 2.4 s⁻¹ in the series “purified protein [4]”.
